Source: paper PMC9860685, “α-Crystallin Domains of Five Human Small Heat Shock Proteins (sHsps) Differ in Dimer Stabilities and Ability to Incorporate Themselves into Oligomers of Full-Length sHsps” (International Journal of Molecular Sciences, 2023)

T1: full-length HspB6 (human, UniProt O14558 1-160)
T1 construct: Predominantly dimeric by cited work; also called B6FL
T1 sequence (looked up): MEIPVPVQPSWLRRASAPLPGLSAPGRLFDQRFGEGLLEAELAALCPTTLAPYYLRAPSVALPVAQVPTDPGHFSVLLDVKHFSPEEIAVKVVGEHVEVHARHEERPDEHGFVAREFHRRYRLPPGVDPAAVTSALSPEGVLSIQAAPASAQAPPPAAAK


Legend:
[1] = molecular target: T2, 3D mutant of HspB1 (S15D, S78D, S82D) (human, UniProt P04792 1-205, S15D | S78D | S82D); test: SEC; full-length sHsp (~19–20 μM per monomer) mixed with ACD (38–110 μM per monomer) in buffer B, 30 min at 42 °C; Superdex 200 Increase column in 50 mM phosphate pH 7.4, 150 mM NaCl, 2 mM DTT; fractions analysed by SDS–PAGE; settings: both partners purified
T2 construct: human HspB1, full length, with three phosphomimicking point mutations; Forms small oligomers (probably dimers or tetramers, by cited work); also called full-length 3D mutant
T2 sequence (P04792 whole entry S15D/S78D/S82D): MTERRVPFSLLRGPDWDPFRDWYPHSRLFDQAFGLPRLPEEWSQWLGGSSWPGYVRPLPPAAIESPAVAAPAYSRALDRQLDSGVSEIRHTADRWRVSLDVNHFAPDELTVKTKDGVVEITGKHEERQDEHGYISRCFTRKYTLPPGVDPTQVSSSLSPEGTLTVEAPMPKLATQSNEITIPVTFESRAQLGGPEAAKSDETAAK

[2] = molecular target: the molecule itself; test: SEC; Superdex 75 10/300 GL, 50 mM phosphate pH 7.4, 150 mM NaCl, 2 mM DTT; 25 μL samples of 16–150 μg (25–600 μM per monomer); apparent dissociation constant, dimer to monomers, from a hyperbolic fit of elution volume against the concentration loaded
[3] = molecular target: the molecule itself; test: cross-linking; glutaraldehyde 0.008% or 0.024%, ACDs at 3 mg/mL in 25 mM HEPES pH 7.5, 30 min at 30 °C; Tricine–SDS–PAGE
[4] = molecular target: T1, full-length HspB6; test: native gel or EMSA; clear native PAGE, 12.5% gel, 80 mM glycine–Tris pH 8.6; sHsp 5–6 μM per monomer mixed with ACD 20–24 μM per monomer, 30 min at 25 °C in buffer B; Western blot with anti-HspB6 for the complexes of HspB6; settings: both partners purified

| binding result [1] | binding result [4] | Binder | Kd [2] [µM] | stoichiometry N [3] |
| --- | --- | --- | --- | --- |
| binds | binds | α-crystallin domain of HspB5 (B5ACD) (domain or fragment, human, UniProt P02511 64-150, looked up, human HspB5 (αB-crystallin), α-crystallin domain, residues 64-150; Cloned by NdeI and XhoI into pET23b; In equilibrium of monomers and dimers; also called HspB5 ACD; source: E. coli, purified (ammonium sulfate fractionation, ion-exchange chromatography, size-exclusion chromatography)) GLSEMRLEKDRFSVNLDVKHFSPEELKVKVLGDVIEVHGKHEERQDEHGFISREFHRKYRIPADVDPLTITSSLSSDGVLTVNGPRK | 127 | 2 |
| binds | – | α-crystallin domain of HspB6 (B6ACD) (domain or fragment, human, UniProt O14558 64-149, looked up, human HspB6, α-crystallin domain, residues 64-149; Cloned by NdeI and XhoI into pET23b; In equilibrium of monomers and dimers; also called HspB6 ACD; source: E. coli, purified (ammonium sulfate fractionation, ion-exchange chromatography, size-exclusion chromatography)) VAQVPTDPGHFSVLLDVKHFSPEEIAVKVVGEHVEVHARHEERPDEHGFVAREFHRRYRLPPGVDPAAVTSALSPEGVLSIQAAPA | 162 | – |
